Read-outs that look alike come from different tables or passages of the source.
B1: sel36m (dsDNA)
DNA 1: GATTCACAGCTGATACACAGGATCTAG
DNA 2: CTAGATCCTGTGTATCAGCTGTGAATC
B2: sel36 (dsDNA)
DNA 1: GATTCACAGCTGATTCACAGCATCTAG
DNA 2: CTAGATGCTGTGAATCAGCTGTGAATC

What was measured:
PhoP [1] = target: T1, PhoP (Mycobacterium tuberculosis, UniProt P71814 1-247); test: ITC
PhoP [2] = target: T1, PhoP; test: ITC; remark: listed apart in the source

| Binder | Kd (PhoP [1]) [nM] | Kd (PhoP [2]) [nM] |
| --- | --- | --- |
| B1 | 32.3 ± 4.12 |  |
| B2 |  | 8.03 ± 3.42 |
